# Assay results as given in patent US10357539B2, “Use of peptides that block metadherin-SND1 interaction as treatment for cancer” (THE TRUSTEES OF PRINCETON UNIVERSITY, priority 2014, dated 2019).
# T1: MTDH (Mus musculus, UniProt Q80WJ7)
# T1 construct: endogenous in cells; host or cells: SND1-KD PyMT;Mtdh+/+ mouse mammary tumor cells
# T1 sequence (Q80WJ7 1-579): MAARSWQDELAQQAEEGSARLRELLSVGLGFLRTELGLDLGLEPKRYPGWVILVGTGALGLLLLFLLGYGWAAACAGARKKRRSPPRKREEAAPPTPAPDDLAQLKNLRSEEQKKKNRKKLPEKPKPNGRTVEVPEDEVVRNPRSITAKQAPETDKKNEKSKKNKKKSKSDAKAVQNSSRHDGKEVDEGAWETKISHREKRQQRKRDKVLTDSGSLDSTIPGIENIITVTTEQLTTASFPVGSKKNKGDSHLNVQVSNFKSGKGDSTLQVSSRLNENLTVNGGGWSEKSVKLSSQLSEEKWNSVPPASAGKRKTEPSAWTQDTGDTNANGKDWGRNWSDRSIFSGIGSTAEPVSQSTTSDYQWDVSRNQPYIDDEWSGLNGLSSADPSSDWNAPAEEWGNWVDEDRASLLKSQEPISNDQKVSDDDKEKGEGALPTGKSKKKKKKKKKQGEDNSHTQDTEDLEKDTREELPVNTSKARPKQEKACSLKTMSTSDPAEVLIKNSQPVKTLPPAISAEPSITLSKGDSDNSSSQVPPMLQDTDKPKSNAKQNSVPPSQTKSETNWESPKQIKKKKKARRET
# B1: murine SND1 R255E: shRNA-resistant murine SND1 mutant R255E (protein, UniProt Q78PY7 2-910, looked up, variant R255E)
# Staphylococcal nuclease …: ASSAQSSGSSGGPAVPTVQRGIVKMVLSGCAIIVRGQPRGGPPPERQINLSNIRAGNLARRAAATQPDGKDTPDEPWAFPAREFLRKKLIGKEVCFTIENKTPQGREYGMIYLGKDTNGENIAESLVAEGLATRREGMRANNPEQNRLSECEEQAKASKKGMWSEGNGSHTIRDLKYTIENPRHFVDSHHQKPVNAIIEHVRDGSVVRALLLPGHHLVTVMLSGIKCPTFRRETDGSETPEPFAAEAKFFTESELLQRDVQIILESCHNQNLLGTILHPNGNITELLLKEGFARCVDWSIAVYTRGAEKLRAAERFAKERRLRIWRDYVPPTANLDQKDKQFVAKVMQVLNADAIVVKLNSGDYKTIHLSSIRPPRLEGDNIQDKNKKLRPLYDIPYMFEAREFLRKKLIGKKVNVTVDYIRPASPATETVPAFSERTCATVTIGGINIAEALVSKGLATVIRYRQDDDQRSSHYDELLAAEARAIKNGKGLHSKKEVPIHRVADISGDTQKAKQFLPFLQRAGRSEAVVEYVFSGSRLKLYLPKETCLITFLLAGIECPRGARNLPGLVQEGEPFSEEATLFTKELVLQREVEVEVESMDKAGNFIGWLHMDGANLSVLLVEQALSKVHFTAERSAYYKPLLSAEEAAKQRKEKVWAHYEERPVEEVMPVLEEKERSASYKPVFVTEITDDLHFYVQDVETGTQLEKLMENMRNDISSHPPVEGSYAPRRGEFCIAKFVDGEWYRARVEKVESPAKVHVFYIDYGNREILPSTRLGTLPPAFSTRVLPAQATEYAFAFIQVPQDEDARTDAVDSVVRDIQNTQCLLNVEHLSASCPHVTLQFADSKGDVGLGLVKEGLVMVEVRKEKQFQKVITEYLNAQESAKSARLNLWRYGDFRADDADEFGYSR
# modifications: shRNA-resistant
# Target: T1, MTDH
# Test: Anti-MTDH immunoprecipitation from SND1-KD PyMT;Mtdh+/+ tumor cells reconstituted with murine SND1
# Format: cell-based
# Conditions: shRNA-resistant construct in SND1-KD PyMT;Mtdh+/+ tumor cells
# Experimental: (FIG. 24A) Lysates from SND1-KD PyMT;Mtdh+/+ tumor cells reconstituted with vector control, WT or mutant shRNA-resistant murine SND1 were immunoprecipitated with anti-MTDH antibody and immunoblotted for indicated proteins. (FIG. 24B) Mammosphere assays were performed with SND1-KD PyMT;Mtdh+/+ tumor cells reconstituted with vector control or indicated SND1 constructs. (FIG. 24C, FIG. 24D) Mammary tumor incidence (FIG. 24C) and tumor growth curve (FIG. 24D) after orthotopic transplantations of SND1-KD PyMT;Mtdh+/+ tumor cells reconstituted with indicated constructs. Statistics: (FIG. 24B, FIG. 24D) Student's t-test. Data represent mean±SEM. (FIG. 24C) Chi-square test. […], *p<0.01, *p<0.05.
# Immunoprecipitation and western blot: For in vivo immunoprecipitation (IP) experiments, cultured cells were washed in cold PBS and lysed in lysis buffer (20 mM Tris pH 7.4, 0.15 M NaCl, 1 mM EDTA, 1 mM EGTA, 1% Tx-100, 0.0025 M Na2P2O7, 1 mM β-glycerolphosphate, 1 mM Na3VO4, and 1 mM NaF) with an EDTA-free protease inhibitor mixture (Roche Applied Science) and PMSF. Cell lysates were then incubated on ice for 10 min, centrifuged, and precleared by incubating with protein A/G beads (Santa Cruz Biotechnology) for 1 h at 4° C. For IP bead preparation, 30 μl of protein A/G beads were incubated with 5 μg of antibodies for 2 h at 4° C. […]
molecule,measurement,value
B1,interaction of murine SND1 mutants with MTDH,nearly completely abolished the interaction with MTDH
